Test results published in patent publication US20250296992A1 (Genmab, published 2025).
Where a chain is given by its changes, count along the chain named.

B1: hu1H2-03 (antibody, V domains shown)
VH: EVQLVESGGGLVQPGGSLRLSCAASGFTFSDYGLHWVRQAPGKGLEWVSYISSGSSTVYFADTLKGRFTISRDNAKNSLYLQMNSLRAEDTAVYYCTRGTWYFDVWGRGTLVTVSS
VL: DIQMTQSPSSLSASVGDRVTITCRTSENIHSYLAWYQQKPGKSPQLLVYNAKTLADGVPSRFSGSGSGTDYTLTISSLQPEDFGTFYCQHFWTTSRTFGGGTKVEIK
notes: see m20
B2: hu14G1-03 (antibody, V domains shown)
VH: EVQLVESGGGLVQPGGSLRLSCAASGFTFSDYGMHWVRQAPGKGLEWVSYISPGSSTIYYADTMKGRFTISRDNAKNSLYLQMNSLRAEDTAVYYCARAYGGSYWYFAVWGQGTLVTVSS
VL: B1 VL with T25A, E27G, F86Y, T93S, S95P, R96Y, V104L
B3: hu1H2-13 (antibody, V domains shown)
VH: B1 VH with S49A
VL: B1 VL
B4: hu1H2-03-LD038 (8) (antibody, V domains shown)
VH: B1 VH
VL: B1 VL
modifications: drug-linker LD038 on cysteines freed by TCEP reduction, DAR 8.0; positions not given
notes: also called hu1H2-03 ADC
B5: hu14G1-03-LD038 (8) (antibody, V domains shown)
VH: B2 VH
VL: B1 VL with T25A, E27G, F86Y, T93S, S95P, R96Y, V104L
modifications: drug-linker LD038 on cysteines freed by TCEP reduction, DAR 8.0; positions not given
notes: also called hu14G1-03 ADC
B6: hu1H2-13-LD038 (8) (antibody, V domains shown)
VH: B1 VH with S49A
VL: B1 VL
modifications: drug-linker LD038 on cysteines freed by TCEP reduction, DAR 8.0; positions not given
notes: also called hu1H2-13 ADC
B7: Sirtratumab-LD038 (8) (antibody, V domains shown)
VH: QVQLVESGGGVVQPGRSLRLSCAASGFTFSSYGMHWVRQAPGKGLEWVAVIWYDGSNQYYADSVKGRFTISRDNSKNTLFLQMHSLRAEDTAVYYCARGLTSGRYGMDWGQGTTVTVSS
VL: DIVMTQSPLSLPVTPGEPASISCRSSQSLLLSHGFNYLDWYLQKPGQSPQLLIYLGSSRASGVPDRFSGSGSGTDFTLKISRVEAEDVGLYYCMQPLQIPWTFGQGTKVEIK
modifications: drug-linker LD038 on cysteines freed by TCEP reduction, DAR 8.0; positions not given
notes: also called Sirtratumab ADC
B8: phA108-LD038 (8) (antibody, V domains shown)
VH: QVQLVQSGAEVKKPGASVKVSCTASGYIFNDYYLHWVRQAPGQGLEWVGIINPSGGSPVYAQKFQGRVTMTRDTSTNTVYMELSSLRSEDTAVYYCARGMVRGVRLFDYWGQGTLVTVSA
VL: EIVLTQSPATLSLSPGERATLSCRASQSVSSYLAWYQQKPGQTPRLLIYDASNRATGVPARFSGSGSGTDFTLTISSLETEDFAVYYCQQRTNWPLTFGGGTKVEIK
modifications: drug-linker LD038 on cysteines freed by TCEP reduction, DAR 8.0; positions not given
notes: also called phA108 ADC
B9: phA290-LD038 (8) (antibody, V domains shown)
VH: QVQLVQSGAEVKKPGASVKVSCKASGYTFTSYYMHWVRQAPGQGLEWMGIINPSGGSTSYAQKFQGRVTMTRDTSTSTVYMELSSLRSEDTAVYYCARGFTRYFDYWGQGTLVTVSA
VL: B8 VL with L4M, A9G, S31K, K39R, T43A, V58I, I75V, T80P, T92Y, K103T
modifications: drug-linker LD038 on cysteines freed by TCEP reduction, DAR 8.0; positions not given
notes: also called phA290 ADC
B10: hu1H2-03-LD343 (8) (antibody, V domains shown)
VH: B1 VH
VL: B1 VL
modifications: drug-linker LD343 on cysteines freed by TCEP reduction, DAR 8.0; positions not given

Molecular target: T1, cynomolgus monkey SLITRK6 extracellular domain linked to his tag (cynomolgus monkey, UniProt G7PVK4 27-608)
T1 construct: extracellular domain; also called cynoSLITRK6; Cyno SLITRK6; not shown: his tag
Test: ELISA, coated antigen

B1 and B2 are within 1.5-fold of each other in EC50: 0.05 nM for the first, 0.04 nM for the second.

For B3, the EC50 was 0.05 nM.

Molecular target: T2, human SLITRK6 extracellular domain linked to his tag (human, UniProt Q9H5Y7 27-608)
T2 construct: extracellular domain; also called huSLITRK6; Hu SLITRK6; not shown: his tag
Test: ELISA, coated antigen

B1 and B2 are the same in EC50: 0.04 nM for the first, 0.04 nM for the second.

For B3, the EC50 was 0.07 nM.

Molecular target: T3, human SLITRK6 on cells (human, UniProt Q9H5Y7 27-841)
T3 construct: whole, on cells
Test: flow cytometry on SW780 cells
Description: (§1) The binding activity of mAbs and ADCs was evaluated by flow cytometer (Beckman, Cytoflex). Specifically, cells were incubated with 50 μL of mAbs or ADCs in series dilutions in PBS containing 1% BSA at 4° C. for 30 min. The cells were washed twice with PBS containing 1% BSA, stained with PE-conjugated anti human Fc in PBS containing 1% BSA and then incubated at 4° C. for 20 min. After that the cells were washed twice with PBS and analyzed by a flow cytometer.

B4 and B1 are the same in EC50: 0.44 nM for the first, 0.44 nM for the second.

B5 and B2 are within 1.5-fold of each other in EC50: 0.64 nM for the first, 0.62 nM for the second.

B3 and B6 are within 1.5-fold of each other in EC50: 0.44 nM for the first, 0.61 nM for the second.

B7 and B8 are within 1.5-fold of each other in EC50: 0.38 nM for the first, 0.29 nM for the second.

B9 was tested, and the EC50 was 0.27 nM.

Molecular target: T3, human SLITRK6 on cells
Test: flow cytometry on SCC-4 cells
Description: (§2) The binding activity of mAbs was evaluated by flow cytometer (Beckman, Cytoflex). Specifically, cells were incubated with 50 μL of mAbs or ADCs in series dilutions in PBS containing 1% BSA at 4° C. for 30 minutes. The cells were washed twice with PBS containing 1% BSA, stained with PE-conjugated anti human Fc in PBS containing 1% BSA and then incubated at 4° C. for 20 min. After that the cells were washed twice with PBS and analyzed by a flow cytometer.

Compared with B1, B2 is 1.6-fold higher in EC50: 0.27 nM for the first, 0.44 nM for the second.

In the case of B3, the EC50 is reported as 0.23 nM.

Molecular target: T3, human SLITRK6 on cells
Test: flow cytometry on RT4 cells, PE-conjugated anti-human Fc
Description: as §1

B10 was tested, and the “EC50 (read off the curve)” value was ~0.4 nM.

Molecular target: T3, human SLITRK6 on cells
Test: cell-based or functional assay

B4 and B5 are within 1.5-fold of each other in “IC50 (nM), cytotoxicity on CHP-212 cells (Cell Titer-Glo)” value: 0.83 nM for the first, 0.91 nM for the second.

First: B6
Second: B7
The “IC50 (nM), cytotoxicity on CHP-212 cells (Cell Titer-Glo)” value of the first is 6-fold lower: 0.93 nM for the first, 5.56 nM for the second.

First: B8
Second: B9
The “IC50 (nM), cytotoxicity on CHP-212 cells (Cell Titer-Glo)” value of the first is 2.3-fold higher: 2.82 nM for the first, 1.22 nM for the second.

B4 and B5 are within 1.5-fold of each other in “IC50 (nM), cytotoxicity on RT4 cells (Cell Titer-Glo)” value (shortened to “IC50 (nM), cytotoxicity on RT4 cells”): 7.02 nM for the first, 9.56 nM for the second.

Going from B6 to B7, the “IC50 (nM), cytotoxicity on RT4 cells” value rises from 5.06 nM to 9.25 nM (1.8-fold).

B8 and B9 are within 1.5-fold of each other in “IC50 (nM), cytotoxicity on RT4 cells” value: 7.29 nM for the first, 5.9 nM for the second.

B6 and B7 are the same in “IC50 (nM), cytotoxicity on 293F-SLITRK6-C9 cells (Cell Titer-Glo)” value: 0.06 nM for the first, 0.06 nM for the second.

With B8 the “IC50 (nM), cytotoxicity on 293F-SLITRK6-C9 cells (Cell Titer-Glo)” value was 0.06 nM.

Molecular target: T3, human SLITRK6 on cells
Test: flow cytometry on RT4 cells
Description: as §1

B4 and B1 are within 1.5-fold of each other in EC50: 0.47 nM for the first, 0.36 nM for the second.

B5 and B2 are within 1.5-fold of each other in EC50: 0.46 nM for the first, 0.38 nM for the second.

B3 and B6 are within 1.5-fold of each other in EC50: 0.27 nM for the first, 0.38 nM for the second.

Going from B7 to B8, the EC50 falls from 0.31 nM to 0.16 nM (1.9-fold). The second is the more potent here.

In the case of B9, the EC50 is reported as 0.16 nM.

Molecular target: T2, human SLITRK6 extracellular domain …
Test: BLI binning on huSLITRK6-his; Ab1 = row antibody first, then Ab2 (competitor) = Sirtratumab
Description: (§3) Epitope binning was characterized by the bio-layer interferometry (BLI). 100 nM of human SLITRK6′ extracellular domain linked to his tag was immobilized on anti-his biosensor tips (Fortebio). The sensors were rinsed with the buffer (50 mM Tris-AcOH, pH 6 or 7.5, 0.05% v/v surfactant P20) for 30 seconds to remove the unbound molecules, then dipped in the 100 nM of antibody 1 solutions for 180 seconds and interspersed by a rinsing step in the buffer solution for 300 seconds. After that, the sensors were dipped in the 100 nM of antibody 2 solutions. The epitope cluster was calculated using ForteBio Data Acquisition 6.3 software.

Going from B1 to B2, the epitope binning signal falls from 0.299 to 0.293.

B3 was tested, and the epitope binning signal was 0.312.

Molecular target: T3, human SLITRK6 on cells
Test: flow cytometry on RT112/84 cells
Description: as §2

Going from B1 to B2, the EC50 rises from 0.23 nM to 0.35 nM (1.5-fold).

Binder B3 has an EC50 of 0.17 nM.

Molecular target: T2, human SLITRK6 extracellular domain …
Test: BLI binning on huSLITRK6-his; Ab1 = row antibody first, then Ab2 (competitor) = hu1H2-13
Description: as §3

Going from B1 to B2, the epitope binning signal rises from 0.0122 to 0.0268.

B3 gave an epitope binning signal of 0.0284.

Molecular target: T3, human SLITRK6 on cells
Test: flow cytometry on SW780 cells
Remark: another data set of the same source
Description: as §2

B1 and B2 are within 1.5-fold of each other in EC50: 0.41 nM for the first, 0.61 nM for the second.

With B3 the EC50 was 0.45 nM.

Molecular target: T2, human SLITRK6 extracellular domain …
Test: BLI binning on huSLITRK6-his; Ab1 = row antibody first, then Ab2 (competitor) = hu1H2-03
Description: as §3

Going from B1 to B2, the epitope binning signal rises from 0.0113 to 0.0244.

B3 gave an epitope binning signal of 0.0288.

Molecular target: T3, human SLITRK6 on cells
Test: flow cytometry on SW780 cells, PE-conjugated anti-human Fc
Description: as §1

For B10, the “EC50 (read off the curve)” value was ~0.3 nM.

Molecular target: T3, human SLITRK6 on cells
Test: flow cytometry on CHP-212 cells
Description: as §1

Going from B4 to B1, the EC50 falls from 0.4 nM to 0.24 nM (1.7-fold). The second is the more potent here.

Compared with B5, B2 is 1.8-fold lower in EC50: 0.65 nM for the first, 0.37 nM for the second. The second is the more potent here.

Going from B3 to B6, the EC50 rises from 0.22 nM to 0.5 nM (2.3-fold).

First: B7
Second: B8
The EC50 of the first is 3.5-fold higher: 0.49 nM for the first, 0.14 nM for the second. The second is the more potent here.

B9 gave an EC50 of 0.13 nM.

Molecular target: T2, human SLITRK6 extracellular domain …
Test: BLI binning on huSLITRK6-his; Ab1 = row antibody first, then Ab2 (competitor) = hu14G1-03
Description: as §3

Going from B1 to B2, the epitope binning signal rises from 0.0077 to 0.0192.

Work on B3 yielded an epitope binning signal of 0.0231.

Molecular target: T3, human SLITRK6 on cells
Test: flow cytometry on RT4 cells
Remark: another data set of the same source
Description: as §2

B1 and B2 are within 1.5-fold of each other in EC50: 0.28 nM for the first, 0.32 nM for the second.

B3 showed an EC50 of 0.27 nM.

Molecular target: T2, human SLITRK6 extracellular domain …
Test: BLI binning on huSLITRK6-his; Ab1 = row antibody first, then Ab2 (competitor) = phA108
Description: as §3

Going from B1 to B2, the epitope binning signal rises from 0.304 to 0.323.

With B3 the epitope binning signal was 0.299.

Molecular target: T2, human SLITRK6 extracellular domain …
Test: BLI binning on huSLITRK6-his; Ab1 = row antibody first, then Ab2 (competitor) = phA290
Description: as §3

First: B1
Second: B2
The epitope binning signal of the first is lower: 0.299 for the first, 0.326 for the second.

Binder B3 has an epitope binning signal of 0.302.

Molecular target: T3, human SLITRK6 on cells
Test: flow cytometry on 293F-SLITRK6-C9 cells
Description: as §1

B4 and B1 are within 1.5-fold of each other in EC50: 1.35 nM for the first, 1.33 nM for the second.

B5 and B2 are within 1.5-fold of each other in EC50: 1.79 nM for the first, 1.77 nM for the second.

B3 and B6 are within 1.5-fold of each other in EC50: 1.32 nM for the first, 1.6 nM for the second.

B7 and B8 are within 1.5-fold of each other in EC50: 1.32 nM for the first, 1.09 nM for the second.

B9 was tested, and the EC50 was 0.79 nM.

Molecular target: T3, human SLITRK6 on cells
Test: flow cytometry on 293F-huSLITRK6-C9 cells
Description: The binding activity of mAbs was evaluated by flow cytometer (Beckman, Cytoflex). Specifically, cells were incubated with 50 μL of mAbs or ADCs in series dilutions in PBS containing 1% BSA at 4° C. for 30 min. The cells were washed twice with PBS containing 1% BSA, stained with PE-conjugated anti human Fc in PBS containing 1% BSA and then incubated at 4° C. for 20 min. After that the cells were washed twice with PBS and analyzed by a flow cytometer.

B1 and B2 are within 1.5-fold of each other in EC50: 1.33 nM for the first, 1.77 nM for the second.

In the case of B3, the EC50 is reported as 1.32 nM.

Molecular target: T1, cynomolgus monkey SLITRK6 extracellular …
Test: BLI; antigen ECD-his on anti-his tips, antibody as analyte; 1:1 fit;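 note: antibody at several concentrations, 180 s association then 300 s dissociation in Tris buffer at pH 6 or 7.5, rate constants from global fitting, KD computed as koff/kon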
Description: (§4) Binding kinetic of antibody-antigen was characterized by the bio-layer interferometry (BLI). 100 nM of SLITRK6′ extracellular domain linked to his tag was immobilized on anti-his biosensor tips (Fortebio). The sensors were rinsed with the buffer (50 mM Tris-AcOH, pH 6 or 7.5, 0.05% v/v surfactant P20) for 10 min to remove the unbound molecules, then dipped in the antibody solutions at different concentrations for 180 seconds and interspersed by a rinsing step in the buffer solution for 300 seconds. Binding affinity was calculated using ForteBio Data Acquisition 6.3 software (ForteBio) and was derived by fitting the kinetic data to a 1:1 Langmuir binding model utilizing global fitting algorithms. The dissociation or association equilibrium constant KD was calculated from the binding rate constants as KD=koff/kₒₙ(where koff and kₒₙ represent the dissociation kinetic constant and the association kinetic constant, respectively).

B1 and B2 are within 1.5-fold of each other in Kd: 1.27 nM for the first, 0.965 nM for the second.

B3 gave a Kd of 1.36 nM.

B1 and B2 are within 1.5-fold of each other in koff: 0.000444 s⁻¹ for the first, 0.000329 s⁻¹ for the second.

B3 showed a koff of 0.000513 s⁻¹.

B1 and B2 are within 1.5-fold of each other in kon: 348000 M⁻¹ s⁻¹ for the first, 341000 M⁻¹ s⁻¹ for the second.

B3 showed a kon of 376000 M⁻¹ s⁻¹.

Molecular target: T2, human SLITRK6 extracellular domain …
Test: as above
Description: as §4

Going from B1 to B2, the Kd falls from 0.92 nM to 0.212 nM (4.3-fold). The second binds more tightly here.

In the case of B3, the Kd is reported as 0.916 nM.

First: B1
Second: B2
The koff of the first is 5.3-fold higher: 0.000441 s⁻¹ for the first, 8.26e-05 s⁻¹ for the second.

Work on B3 yielded a koff of 0.00044 s⁻¹.

B1 and B2 are within 1.5-fold of each other in kon: 480000 M⁻¹ s⁻¹ for the first, 390000 M⁻¹ s⁻¹ for the second.

Work on B3 yielded a kon of 480000 M⁻¹ s⁻¹.

Molecular target: T3, human SLITRK6 on cells
Test: flow cytometry on CHP-212 cells
Remark: another data set of the same source
Description: as §2

Compared with B1, B2 is 1.5-fold higher in EC50: 0.22 nM for the first, 0.33 nM for the second.

B3 was tested, and the EC50 was 0.22 nM.
